From paper PMC12053622 (2025)

Tests used:
Assay in all cases: BLI
[1] = target: T1, hMCT1/hBSG (Homo sapiens)
T1 chain 1: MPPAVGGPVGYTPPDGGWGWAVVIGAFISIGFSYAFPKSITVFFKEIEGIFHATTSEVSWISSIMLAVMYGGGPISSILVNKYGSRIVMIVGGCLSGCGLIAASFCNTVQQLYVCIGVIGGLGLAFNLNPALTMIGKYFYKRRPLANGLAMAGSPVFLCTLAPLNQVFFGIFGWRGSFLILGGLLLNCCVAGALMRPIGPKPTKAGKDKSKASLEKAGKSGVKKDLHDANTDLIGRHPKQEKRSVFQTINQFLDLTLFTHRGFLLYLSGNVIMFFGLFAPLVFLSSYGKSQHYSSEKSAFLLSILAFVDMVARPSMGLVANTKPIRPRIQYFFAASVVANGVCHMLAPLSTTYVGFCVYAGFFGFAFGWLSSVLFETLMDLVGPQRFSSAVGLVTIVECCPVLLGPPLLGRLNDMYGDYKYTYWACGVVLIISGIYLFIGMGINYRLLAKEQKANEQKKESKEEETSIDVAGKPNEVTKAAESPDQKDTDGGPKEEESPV
T1 chain 2: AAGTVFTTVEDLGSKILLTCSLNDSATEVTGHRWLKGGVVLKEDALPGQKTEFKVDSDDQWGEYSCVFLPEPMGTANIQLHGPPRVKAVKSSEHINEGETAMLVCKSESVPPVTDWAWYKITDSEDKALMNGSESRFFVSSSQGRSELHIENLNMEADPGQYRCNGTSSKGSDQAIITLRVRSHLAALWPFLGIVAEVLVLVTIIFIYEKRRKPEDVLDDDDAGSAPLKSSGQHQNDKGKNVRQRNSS

[2] = target: T1, hMCT1/hBSG
[3] = target: T2, WT mMCT1/mBSG complex (mouse, UniProt P53986 1-493)
T2 chain 1: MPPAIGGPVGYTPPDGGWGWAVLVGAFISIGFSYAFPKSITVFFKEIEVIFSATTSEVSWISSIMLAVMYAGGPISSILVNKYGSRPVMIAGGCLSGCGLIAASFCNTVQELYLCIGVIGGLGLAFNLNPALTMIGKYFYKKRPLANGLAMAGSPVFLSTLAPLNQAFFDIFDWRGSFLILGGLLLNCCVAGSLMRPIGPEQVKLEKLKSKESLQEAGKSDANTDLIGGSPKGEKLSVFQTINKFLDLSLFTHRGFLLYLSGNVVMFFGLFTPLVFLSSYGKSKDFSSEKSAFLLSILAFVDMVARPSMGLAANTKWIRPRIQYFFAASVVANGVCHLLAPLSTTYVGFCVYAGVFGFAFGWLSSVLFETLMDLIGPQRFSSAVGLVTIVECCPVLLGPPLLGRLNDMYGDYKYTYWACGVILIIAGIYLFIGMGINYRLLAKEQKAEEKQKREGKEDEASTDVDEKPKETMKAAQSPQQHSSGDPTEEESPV
T2 chain 2: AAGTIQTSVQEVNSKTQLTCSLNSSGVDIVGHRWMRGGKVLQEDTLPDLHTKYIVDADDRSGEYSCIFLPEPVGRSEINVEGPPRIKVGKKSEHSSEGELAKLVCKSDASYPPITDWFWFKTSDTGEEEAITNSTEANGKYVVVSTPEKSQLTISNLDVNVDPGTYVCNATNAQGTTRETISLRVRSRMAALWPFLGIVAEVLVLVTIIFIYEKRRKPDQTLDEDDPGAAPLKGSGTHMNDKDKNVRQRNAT

B1: 6E7F1 monoclonal antibody (antibody, V domains shown)
VH: QVQLQQPGAELVKPGASVNLSCKASGYTFTNYWIHWVKQRPGQGLEWIGMIHPNSGTINYNEKFKTKATLTVDKSSSTAYMQLSSLTSEDSAVYYCARVGTGSLDYWGQGTSVTVSS
VL: DIVMTQSPATLSVTPGDRVSLSCRASQSISDYLHWYQQKSHESPRLLIKYVSQSISGIPSRFSGSGSGSYFTLSIDSVEPEDVGVYYCQNGHRFPYTFGGGTKLEIK
modifications: Full-length hMCT1 with hBSG isoform 2 (limits not given; signal peptide 1-21 removed by convention); Ig-domain disulfides; N-glycosylated BSG if expressed in mammalian cells
With B1 the koff [1] was 0.000183 s⁻¹ and the Kd [2] was 4.41 nM.

B2: 6E7F1 monoclonal antibody (antibody, V domains shown)
VH: QVQLQQPGAELVKPGASVNLSCKASGYTFTNYWIHWVKQRPGQGLEWIGMIHPNSGTINYNEKFKTKATLTVDKSSSTAYMQLSSLTSEDSAVYYCARVGTGSLDYWGQGTSVTVSS
VL: DIVMTQSPATLSVTPGDRVSLSCRASQSISDYLHWYQQKSHESPRLLIKYVSQSISGIPSRFSGSGSGSYFTLSIDSVEPEDVGVYYCQNGHRFPYTFGGGTKLEIK
Binder B2 has a Kd [3] of 0.421 nM.
